Results from article PMC6713507.

Target: catalytic α subunit of the cAMP-dependent protein kinase A, Cushing's syndrome mutant L205R (PKA-C^L205R) (human)
Assay: ITC

Kd: 3.5 µM
Substance: VPS36-derived peptide (vacuolar protein-sorting–associated protein 36, residues 115 to 130)
